Biological target: T1, Reb1 (146-504) (Schizosaccharomyces pombe, UniProt Q9P6H9)
T1 sequence: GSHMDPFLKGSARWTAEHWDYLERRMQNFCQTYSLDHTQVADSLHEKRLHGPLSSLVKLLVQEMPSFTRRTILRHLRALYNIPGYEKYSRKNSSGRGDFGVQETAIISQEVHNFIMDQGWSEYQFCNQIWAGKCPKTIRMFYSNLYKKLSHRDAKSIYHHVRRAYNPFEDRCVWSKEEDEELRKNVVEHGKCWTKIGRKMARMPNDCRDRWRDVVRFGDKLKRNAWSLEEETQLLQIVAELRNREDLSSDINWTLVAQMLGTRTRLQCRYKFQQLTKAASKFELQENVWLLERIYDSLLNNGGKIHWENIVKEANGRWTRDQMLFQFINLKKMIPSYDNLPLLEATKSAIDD
Experiment: X-ray crystallography

B1: Ter3 26-mer (crystal) (dsDNA)
DNA 1: GTAAAAGGTAAGGGTAATGCACTTTT
DNA 2: CAAAAGTGCATTACCCTTACCTTTTA
B1: binds.
